In article PMC11310373, “Development of a microbial dewaxing agent using three spore forming bacteria” (Bioresources and Bioprocessing, 2024) one finds Km, kcat and kcat/Km data, which are given here for three proteins.

Substrate in the series “purified protein”: Cc1cc2nc3c(=O)[nH]c(=O)nc-3n(C[C@H](O)[C@H](O)[C@H](O)COP(=O)(O)O)c2cc1C
The series is described as follows: purified protein. It counts as biochemical, Geobacillus thermodenitrificans. The note with it: FMN added to octadecane/NADPH mixture, FMNH2 consumption followed at A455, pH 8.0, 60 °C, varied: cofactor.

Substrate in series [1]: CCCCCCCCCCCCCCCCCC
The series is described as follows: NADPH consumption, Lineweaver-Burk. The series is classed as biochemical, Geobacillus thermodenitrificans. The note with it: 10 mM NADPH, 0.015% Triton X-100, 50 mM Tris-HCl pH 8.0, 60 °C. The source says: NADPH consumption, Lineweaver-Burk on LadA (alkane monooxygenase)

The Km is the concentration of substrate that gives half-maximal velocity. What is called kcat is the number of substrate molecules converted per active site and unit of time at saturation. As usually defined, the kcat/Km is the turnover number divided by the Michaelis constant.

B1: LadA (alkane monooxygenase) (Geobacillus thermodenitrificans NG80-2) (protein)
chain: MTKKIHINAFEMNCVGHIAHGLWRHPENQRHRYTDLNYWTELAQLLEKGKFDALFLADVVGIYDVYRQSRDTAVREAVQIPVNDPLMLISAMAYVTKHLAFAVTFSTTYEHPYGHARRMSTLDHLTKGRIAWNVVTSHLPSADKNFGIKKILEHDERYDLADEYLEVCYKLWEGSWEDNAVIRDIENNIYTDPSKVHEINHSGKYFEVPGPHLCEPSPQRTPVIYQAGMSERGREFAAKHAECVFLGGKDVETLKFFVDDIRKRAKKYGRNPDHIKMFAGICVIVGKTHDEAMEKLNSFQKYWSLEGHLAHYGGGTGYDLSKYSSNDYIGSISVGEIINNMSKLDGKWFKLSVGTPKKVADEMQYLVEEAGIDGFNLVQYVSPGTFVDFIELVVPELQKRGLYRVDYEEGTYREKLFGKGNYRLPDDHIAARYRNISSNV
With B1, the Michaelis constant (Km) in the series “purified protein” was 3.3 ± 0.2 µM. In series [1], the Km stood at 10.36 ± 1.6 mM, the kcat was 1.78 ± 0.2 min⁻¹ and the kcat/Km stood at 2.83 M⁻¹ s⁻¹.

B2: LadA (alkane monooxygenase) (Geobacillus thermodenitrificans NG80-2; F10L/N133R) (protein)
chain: MTKKIHINALEMNCVGHIAHGLWRHPENQRHRYTDLNYWTELAQLLEKGKFDALFLADVVGIYDVYRQSRDTAVREAVQIPVNDPLMLISAMAYVTKHLAFAVTFSTTYEHPYGHARRMSTLDHLTKGRIAWRVVTSHLPSADKNFGIKKILEHDERYDLADEYLEVCYKLWEGSWEDNAVIRDIENNIYTDPSKVHEINHSGKYFEVPGPHLCEPSPQRTPVIYQAGMSERGREFAAKHAECVFLGGKDVETLKFFVDDIRKRAKKYGRNPDHIKMFAGICVIVGKTHDEAMEKLNSFQKYWSLEGHLAHYGGGTGYDLSKYSSNDYIGSISVGEIINNMSKLDGKWFKLSVGTPKKVADEMQYLVEEAGIDGFNLVQYVSPGTFVDFIELVVPELQKRGLYRVDYEEGTYREKLFGKGNYRLPDDHIAARYRNISSNV
B2: the Km in “purified protein” was 3.9 ± 0.3 µM. Moreover, in series [1], the Km stood at 2.04 ± 0.2 mM, the kcat was 4.42 ± 0.6 min⁻¹ and the kcat/Km is 36.2 M⁻¹ s⁻¹.

B3: LadA (alkane monooxygenase) (Geobacillus thermodenitrificans NG80-2; F10L) (protein)
chain: MTKKIHINALEMNCVGHIAHGLWRHPENQRHRYTDLNYWTELAQLLEKGKFDALFLADVVGIYDVYRQSRDTAVREAVQIPVNDPLMLISAMAYVTKHLAFAVTFSTTYEHPYGHARRMSTLDHLTKGRIAWNVVTSHLPSADKNFGIKKILEHDERYDLADEYLEVCYKLWEGSWEDNAVIRDIENNIYTDPSKVHEINHSGKYFEVPGPHLCEPSPQRTPVIYQAGMSERGREFAAKHAECVFLGGKDVETLKFFVDDIRKRAKKYGRNPDHIKMFAGICVIVGKTHDEAMEKLNSFQKYWSLEGHLAHYGGGTGYDLSKYSSNDYIGSISVGEIINNMSKLDGKWFKLSVGTPKKVADEMQYLVEEAGIDGFNLVQYVSPGTFVDFIELVVPELQKRGLYRVDYEEGTYREKLFGKGNYRLPDDHIAARYRNISSNV
On to B3, for which the Km in “purified protein” turned out to be 3.1 ± 0.3 µM. Moreover, in series [1], the Km was 6.98 ± 0.5 mM, the kcat amounted to 2.16 ± 0.3 min⁻¹ and the kcat/Km came to 5.17 M⁻¹ s⁻¹.
